Laboratory results published in patent US20100136005A1 (Genentech, published 2010).
One block for each binder: values may come before it.

Key:
[1] = biological target: T1, rhesus CD11a (rhesus, UniProt H9Z8N3 26-1169); assay: binding to rhesus peripheral blood lymphocytes
T1 construct: whole, on cells; also called rhCD11a
T1 sequence: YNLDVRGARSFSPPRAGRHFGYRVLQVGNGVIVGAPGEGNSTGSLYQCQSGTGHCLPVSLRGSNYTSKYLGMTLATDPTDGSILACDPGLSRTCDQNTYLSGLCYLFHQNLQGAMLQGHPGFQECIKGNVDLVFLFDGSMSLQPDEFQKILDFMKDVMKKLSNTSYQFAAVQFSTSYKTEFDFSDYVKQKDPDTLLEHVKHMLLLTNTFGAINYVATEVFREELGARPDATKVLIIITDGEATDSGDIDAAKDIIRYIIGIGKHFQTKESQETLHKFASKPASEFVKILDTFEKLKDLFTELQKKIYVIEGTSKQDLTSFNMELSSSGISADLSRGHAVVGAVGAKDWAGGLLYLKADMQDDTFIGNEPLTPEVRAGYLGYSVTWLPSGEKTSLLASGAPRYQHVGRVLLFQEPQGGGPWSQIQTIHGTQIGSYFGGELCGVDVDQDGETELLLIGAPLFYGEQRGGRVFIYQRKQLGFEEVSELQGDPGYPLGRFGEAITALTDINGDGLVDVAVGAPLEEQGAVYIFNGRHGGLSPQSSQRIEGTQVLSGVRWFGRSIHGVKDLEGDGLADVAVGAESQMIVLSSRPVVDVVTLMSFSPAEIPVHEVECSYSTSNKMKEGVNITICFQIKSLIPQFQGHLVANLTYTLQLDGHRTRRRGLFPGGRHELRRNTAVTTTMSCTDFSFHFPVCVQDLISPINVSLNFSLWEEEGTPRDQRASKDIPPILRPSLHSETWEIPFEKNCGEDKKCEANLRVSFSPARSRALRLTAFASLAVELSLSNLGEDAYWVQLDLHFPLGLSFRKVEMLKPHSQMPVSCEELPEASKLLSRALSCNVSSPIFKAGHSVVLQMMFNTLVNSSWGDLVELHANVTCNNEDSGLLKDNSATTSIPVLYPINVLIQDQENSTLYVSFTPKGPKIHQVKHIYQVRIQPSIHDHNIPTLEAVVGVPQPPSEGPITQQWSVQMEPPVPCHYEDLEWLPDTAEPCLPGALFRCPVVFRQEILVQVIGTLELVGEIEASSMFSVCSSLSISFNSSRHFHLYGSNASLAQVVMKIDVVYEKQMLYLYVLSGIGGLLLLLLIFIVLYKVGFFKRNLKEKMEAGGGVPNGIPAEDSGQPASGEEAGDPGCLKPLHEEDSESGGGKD

[2] = biological target: T2, human CD11a (human, UniProt P20701 26-1170); assay: FACScan, Jurkat cells
T2 construct: whole, on cells; On cells as LFA-1 together with CD18; also called alpha subunit of LFA-1 (CD11a/CD18)
Protocol: (§1) Aliquots of 10⁶ Jurkat T-cells were incubated with serial dilutions of humanized and control antibodies in PBS-0.1% BSA-10 mM sodium azide for 45 min at 4° C. The cells were washed and then incubated in fluorescein-conjugated goat anti-human F(ab′)₂ (Organon Teknika, Westchester, Pa.) for 45 min at 4° C. Cells were washed and analysed on a FACScan (Becton Dickinson, Mountain View, Calif.). 8×10³ cells were acquired by list mode and gated by forward light scatter versus side light scatter, thereby excluding dead cells and debris.

[3] = biological target: T2, human CD11a; assay: FACScan, Jurkat cells; ratio to HuIgG1 EC50 (0.042 nM)
Protocol: as §1

[4] = biological target: T1, rhesus CD11a; assay: binding to rhesus peripheral blood lymphocytes; ratio to HuIgG1 EC50 (45.6 nM)
[5] = biological target: T1, rhesus CD11a; assay: cell binding, rhesus against human CD11a
[6] = biological target: T2, human CD11a; assay: cell-based or functional assay
[7] = biological target: T2, human CD11a; assay: cell-based or functional assay; remark: listed apart in the source

B1: AspH54Ala (antibody, human IgG1, V domains shown)
VH: EVQLVESGGGLVQPGGSLRLSCAASGYSFTGHWMNWVRQAPGKGLEWVGMIHPSASETRYNQKFKDRFTISVDKSKNTLYLQMNSLRAEDTAVYYCARGIYFYGTTYFDYWGQGTLVTVSS
VL: DIQMTQSPSSLSASVGDRVTITCRASKTISKYLAWYQQKPGKAPKLLIYSGSTLQSGVPSRFSGSGSGTDFTLTISSLQPEDFATYYCQQHNEYPLTFGQGTKVEIK
notes: HuIgG1 variant (human IgG1); also called AspH54 change to Ala
- fold improvement over HuIgG1 [1]: 3 fold

B4: AspH54Gln (antibody, human IgG1, V domains shown)
VH: EVQLVESGGGLVQPGGSLRLSCAASGYSFTGHWMNWVRQAPGKGLEWVGMIHPSQSETRYNQKFKDRFTISVDKSKNTLYLQMNSLRAEDTAVYYCARGIYFYGTTYFDYWGQGTLVTVSS
VL: DIQMTQSPSSLSASVGDRVTITCRASKTISKYLAWYQQKPGKAPKLLIYSGSTLQSGVPSRFSGSGSGTDFTLTISSLQPEDFATYYCQQHNEYPLTFGQGTKVEIK
notes: HuIgG1 variant (human IgG1); also called AspH54 change to Gln
- Variant EC50/HuIgG1 EC50 [3]: 20 ratio
- Variant EC50/HuIgG1 EC50 [4]: 4.4 ratio

B5: H2 (antibody, human IgG1, V domains shown)
VH: EVQLVESGGGLVQPGGSLRLSCAASGYSFTGHWMNWVRQAPGKGLEWVGMIAPADAETRYNQKFKDRFTISVDKSKNTLYLQMNSLRAEDTAVYYCARGIYFYGTTYFDYWGQGTLVTVSS
VL: DIQMTQSPSSLSASVGDRVTITCRASKTISKYLAWYQQKPGKAPKLLIYSGSTLQSGVPSRFSGSGSGTDFTLTISSLQPEDFATYYCQQHNEYPLTFGQGTKVEIK
notes: HuIgG1 variant (human IgG1); also called variant H2; HisH52Ala/SerH53Ala/SerH55Ala
- fold better than HuIgG1 [1]: 18 fold

B6: AspH54Glu (antibody, human IgG1, V domains shown)
VH: EVQLVESGGGLVQPGGSLRLSCAASGYSFTGHWMNWVRQAPGKGLEWVGMIHPSESETRYNQKFKDRFTISVDKSKNTLYLQMNSLRAEDTAVYYCARGIYFYGTTYFDYWGQGTLVTVSS
VL: DIQMTQSPSSLSASVGDRVTITCRASKTISKYLAWYQQKPGKAPKLLIYSGSTLQSGVPSRFSGSGSGTDFTLTISSLQPEDFATYYCQQHNEYPLTFGQGTKVEIK
notes: HuIgG1 variant (human IgG1); also called AspH54 change to Glu
- Variant EC50/HuIgG1 EC50 [3]: 16 ratio

B7: AspH54Asn (antibody, human IgG1, V domains shown)
VH: EVQLVESGGGLVQPGGSLRLSCAASGYSFTGHWMNWVRQAPGKGLEWVGMIHPSNSETRYNQKFKDRFTISVDKSKNTLYLQMNSLRAEDTAVYYCARGIYFYGTTYFDYWGQGTLVTVSS
VL: DIQMTQSPSSLSASVGDRVTITCRASKTISKYLAWYQQKPGKAPKLLIYSGSTLQSGVPSRFSGSGSGTDFTLTISSLQPEDFATYYCQQHNEYPLTFGQGTKVEIK
notes: HuIgG1 variant (human IgG1); also called AspH54 change to Asn
- Variant EC50/HuIgG1 EC50 [3]: 26 ratio
- fold improvement of rhesus binding (against HuIgG1) [1]: 10 fold
- Variant EC50/HuIgG1 EC50 [4]: 0.1 ratio

B10: AspH54Lys (antibody, human IgG1, V domains shown)
VH: EVQLVESGGGLVQPGGSLRLSCAASGYSFTGHWMNWVRQAPGKGLEWVGMIHPSKSETRYNQKFKDRFTISVDKSKNTLYLQMNSLRAEDTAVYYCARGIYFYGTTYFDYWGQGTLVTVSS
VL: DIQMTQSPSSLSASVGDRVTITCRASKTISKYLAWYQQKPGKAPKLLIYSGSTLQSGVPSRFSGSGSGTDFTLTISSLQPEDFATYYCQQHNEYPLTFGQGTKVEIK
notes: HuIgG1 variant (human IgG1); also called AspH54 change to Lys
- Variant EC50/HuIgG1 EC50 [4]: 3.8 ratio

B12: H2A1 (antibody, human IgG1, V domains shown)
VH: EVQLVESGGGLVQPGGSLRLSCAASGYSFTGHWMNWVRQAPGKGLEWVGMIAPADSETRYNQKFKDRFTISVDKSKNTLYLQMNSLRAEDTAVYYCARGIYFYGTTYFDYWGQGTLVTVSS
VL: DIQMTQSPSSLSASVGDRVTITCRASKTISKYLAWYQQKPGKAPKLLIYSGSTLQSGVPSRFSGSGSGTDFTLTISSLQPEDFATYYCQQHNEYPLTFGQGTKVEIK
notes: HuIgG1 variant (human IgG1); also called HisH52Ala/SerH53Ala; HisH52Ala-SerH53Ala
- fold improvement in binding compared to HuIgG1 [1]: 77 fold

Now from value to binder:

- fold reduction in binding (against F(ab)-2) [2]: 3 fold
B2: humanized MHM24 F(ab)-4 (Fab, V domains shown)
VH: EVQLVESGGGLVQPGGSLRLSCAASGFSFTGHWMNWVRQAPGKGLEWVGMIHPSDSETRYNQKFKDRFTISRDNSKNTLYLQMNSLRAEDTAVYYCARGIYFYGTTYFDYWGQGTLVTVSS
VL: DIQMTQSPSSLSASVGDRVTITCRASKTISKYLAWYQQKPGKAPKLLIYSGSSLESGVPSRFSGSGSGTDFTLTISSLQPEDFATYYCQQHNEYPLTFGQGTKVEIK

- fold improvement in binding (against F(ab)-2) [2]: 23 fold
B3: humanized MHM24 F(ab)-5 (Fab, V domains shown)
VH: EVQLVESGGGLVQPGGSLRLSCAASGFSFTGHWMNWVRQAPGKGLEWVGMIHPSDSETRYNQKFKDRFTISVDKSSSTLYLQMNSLRAEDTAVYYCARGIYFYGTTYFDYWGQGTLVTVSS
VL: DIQMTQSPSSLSASVGDRVTITCRASKTISKYLAWYQQKPGKAPKLLIYSGSSLESGVPSRFSGSGSGTDFTLTISSLQPEDFATYYCQQHNEYPLTFGQGTKVEIK
notes: F(ab) with human CL and CH1; Worked back from F(ab)-8

- fold improvement in binding (against F(ab)-6) [2]: 3 fold
B8: humanized MHM24 F(ab)-7 (Fab, V domains shown)
VH: EVQLVESGGGLVQPGGSLRLSCAASGYSFTGHWMNWVRQAPGKGLEWVGMIHPSDSETRYNQKFKDRFTISVDKSSSTLYLQMNSLRAEDTAVYYCARGIYFYGTTYFDYWGQGTLVTVSS
VL: DIQMTQSPSSLSASVGDRVTITCRASKTISKYLAWYQQKPGKAPKLLIYSGSTLQSGVPSRFSGSGSGTDFTLTISSLQPEDFATYYCQQHNEYPLTFGQGTKVEIK
notes: as for B3

- fold improvement in binding (against F(ab)-5) [2]: 4 fold
B9: humanized MHM24 F(ab)-6 (Fab, V domains shown)
VH: EVQLVESGGGLVQPGGSLRLSCAASGFSFTGHWMNWVRQAPGKGLEWVGMIHPSDSETRYNQKFKDRFTISVDKSSSTLYLQMNSLRAEDTAVYYCARGIYFYGTTYFDYWGQGTLVTVSS
VL: DIQMTQSPSSLSASVGDRVTITCRASKTISKYLAWYQQKPGKAPKLLIYSGSTLQSGVPSRFSGSGSGTDFTLTISSLQPEDFATYYCQQHNEYPLTFGQGTKVEIK
notes: as for B3

- Variant EC50/HuIgG1 EC50 [4]: 0.9 ratio
B11: AspH54Ser (antibody, human IgG1, V domains shown)
VH: EVQLVESGGGLVQPGGSLRLSCAASGYSFTGHWMNWVRQAPGKGLEWVGMIHPSSSETRYNQKFKDRFTISVDKSKNTLYLQMNSLRAEDTAVYYCARGIYFYGTTYFDYWGQGTLVTVSS
VL: DIQMTQSPSSLSASVGDRVTITCRASKTISKYLAWYQQKPGKAPKLLIYSGSTLQSGVPSRFSGSGSGTDFTLTISSLQPEDFATYYCQQHNEYPLTFGQGTKVEIK
notes: HuIgG1 variant (human IgG1); also called AspH54 change to Ser

- fold improvement over HuIgG1 [1]: 3 fold
B13: GluH56Ala (antibody, human IgG1, V domains shown)
VH: EVQLVESGGGLVQPGGSLRLSCAASGYSFTGHWMNWVRQAPGKGLEWVGMIHPSDSATRYNQKFKDRFTISVDKSKNTLYLQMNSLRAEDTAVYYCARGIYFYGTTYFDYWGQGTLVTVSS
VL: DIQMTQSPSSLSASVGDRVTITCRASKTISKYLAWYQQKPGKAPKLLIYSGSTLQSGVPSRFSGSGSGTDFTLTISSLQPEDFATYYCQQHNEYPLTFGQGTKVEIK
notes: HuIgG1 variant (human IgG1)

- fold reduction in binding (rhesus against human CD11a) [5]: ~1000 fold
- IC50 Value (nM), Jurkat:HuK cell adhesion [6]: 0.09 nM
- IC50 Value (nM), human mixed lymphocyte response [7]: 0.19 nM
B14: murine MHM24 (antibody, V domains shown)
VH: EVQLQQPGAELMRPGASVKLSCKASGYSFTGHWMNWVRQRPGQGLEWIGMIHPSDSETRLNQKFKDKATLTVDKSSSSAYMQLSSPTSEDSAVYYCARGIYFYGTTYFDYWGQGTTLTVSS
VL: DVQITQSPSYLAASPGETISINCRASKTISKYLAWYQEKPGKTNKLLIYSGSTLQSGIPSRFSGSGSGTDFTLTISSLEPEDFAMYYCQQHNEYPLTFGTGTKLELKR
notes: Murine anti-human CD11a MAb; also called muMHM24; murMHM24

- IC50 Value (nM), Jurkat:HuK cell adhesion [6]: 0.1 nM
B15: chimeric MHM24 IgG1 (antibody, V domains shown)
VH: EVQLQQPGAELMRPGASVKLSCKASGYSFTGHWMNWVRQRPGQGLEWIGMIHPSDSETRLNQKFKDKATLTVDKSSSSAYMQLSSPTSEDSAVYYCARGIYFYGTTYFDYWGQGTTLTVSS
VL: DVQITQSPSYLAASPGETISINCRASKTISKYLAWYQEKPGKTNKLLIYSGSTLQSGIPSRFSGSGSGTDFTLTISSLEPEDFAMYYCQQHNEYPLTFGTGTKLELKR
